Experimental data taken from patent US20150250848A1 (TRUSTEES OF DARTMOUTH COLLEGE, published 2015).
One block for each binder: values may come before it. Where no end group is shown, it is not given here. [ ]: non-standard residue; d: D form. The star is where a group is joined. Biotin = O=C1N[C@H]2[C@H](CS[C@H]2CCCCC(=O)*)N1; Ahx = NCCCCCC(=O)O

How the values were obtained:
CAL PDZ domain (CALP) [1] = biological target: T1, CAL PDZ domain (CALP) (UniProt Q9HD26 278-362); assay: fluorescence polarization; reference: iCAL42 with the CAL PDZ domain
[2] = biological target: T2, His10 tagged (uncleaved) TIP-1 (UniProt O14907 1-124); assay: CombLib peptide array
T2 construct: also called TIP-1 (peptide array experiments); not shown: N-terminal His10 tag
T2 sequence: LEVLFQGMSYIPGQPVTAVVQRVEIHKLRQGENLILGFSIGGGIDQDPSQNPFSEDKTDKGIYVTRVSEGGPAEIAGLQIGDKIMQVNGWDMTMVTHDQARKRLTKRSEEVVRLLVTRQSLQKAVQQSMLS
From the text: (§1) For TIP-1 peptide array experiments, His₁₀ tagged (uncleaved) protein was used to facilitate quantitation.

[3] = biological target: T3, Tax-interacting protein-1 (TIP-1), recombinant, tag cleaved (UniProt O14907 1-124); assay: FP displacement assay
T3 construct: Used for FP and crystallization; also called TIP-1 PDZ domain
T3 sequence (looked up): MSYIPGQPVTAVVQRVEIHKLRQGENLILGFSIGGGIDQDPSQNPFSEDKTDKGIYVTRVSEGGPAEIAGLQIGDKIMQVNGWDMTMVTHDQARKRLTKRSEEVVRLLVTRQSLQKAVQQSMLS
Method: as §1
In order to quantitate the impact of the P⁻⁵ Leu substitution and to assess inhibitory potential at high peptide concentrations, FP displacement assays were performed.

CAL PDZ domain (CALP) [4] = biological target: T1, CAL PDZ domain (CALP); assay: calculated from Ki values (FP); reference: the same peptide with the highest affinity alternative among the NHERF and TIP-1 PDZ domains
CAL PDZ domain (CALP) [5] = biological target: T1, CAL PDZ domain (CALP); assay: fluorescence polarization competition with a labeled peptide
Method: (§2) The experimental inhibitory constants of top- and poorly-ranked peptide sequences from the K* CAL-CFTR design were experimentally determined. […] The corresponding N-terminally acetylated peptides were purchased from NEO Bio-Science (Cambridge, Mass.) and the Kᵢ values for the peptides were detected using fluorescence polarization. Briefly, the CAL PDZ domain was incubated with a labeled peptide of known binding affinity. Each peptide inhibitor was serially diluted and the protein-peptide mixture was added to each dilution. Finally, the amount of competitive inhibition was tracked using residual fluorescence polarization.
(§3) The Kᵢ value for each peptide hexamer was determined using fluorescence polarization.

CAL PDZ domain (CALP) [6] = biological target: T1, CAL PDZ domain (CALP); assay: fluorescence polarization competition; reference: iCAL35 with CAL
Method: as §2, §3

CAL PDZ domain (CALP) [7] = biological target: T1, CAL PDZ domain (CALP); assay: fluorescence polarization competition; reference: wild-type CFTR sequence with CAL
Method: as §2, §3

CAL PDZ domain (CALP) [8] = biological target: T1, CAL PDZ domain (CALP); assay: FP competition assay
CAL PDZ domain (CALP) [9] = biological target: T1, CAL PDZ domain (CALP); assay: calculated from Ki values (FP); reference: the same peptide with TIP-1
CAL PDZ domain (CALP) [10] = biological target: T1, CAL PDZ domain (CALP); assay: calculated from Ki values (FP); reference: the same peptide with the NHERF PDZ domains
CAL PDZ domain (CALP) [11] = biological target: T1, CAL PDZ domain (CALP); assay: fluorescence polarization competition
[12] = biological target: T3, Tax-interacting protein-1 (TIP-1), …; assay: FP displacement assay, reporter F*-iCAL36
CAL PDZ domain (CALP) [13] = biological target: T1, CAL PDZ domain (CALP); assay: calculated from Ki values (FP); reference: the same peptide with N2P2

binding result [2]: no binding
ΔΔG (CAL PDZ domain (CALP) [4]): -2.5 kcal/mol
Binder: ANSRLPTSII (also called unlabeled iCAL42) [iCAL42]
binding result [3]: no binding (tested: up to millimolar peptide concentrations)

binding result [3]: no binding
Binder: ANSRAPTSII [P^-5 alanine mutant of iCAL36 (ANSRAPTSII)]

Ki (CAL PDZ domain (CALP) [5]): 2.1 µM
fold improvement over iCAL35 (CAL PDZ domain (CALP) [6]): 7 fold
fold higher affinity (CAL PDZ domain (CALP) [7]): 331 fold
Binder: Ac-WQVTRV (also called WQVTRV) [kCAL01]

ΔΔG (CAL PDZ domain (CALP) [9]): 1 kcal/mol
ΔΔG (CAL PDZ domain (CALP) [10]): -3.3 kcal/mol
Binder: ANSRWPTSII (also called PRC 36; iCa136) [iCAL36]

Ki [12]: 130 µM
ΔΔGCAL-best (CAL PDZ domain (CALP) [13]): 0.1 kcal/mol
Binder: ANGLMQTSKL [somatostatin receptor subtype 5 (SSR5) C-terminal peptide]

Continued, binder first:

B1: F*-iCAL42 (peptide)
peptide: {Fluorescein-Ahx}-ANSRLPTSII
notes: also called N-terminally fluoresceinated version of iCAL42
fold enhancement in CAL affinity (CAL PDZ domain (CALP) [1]): 5 fold

B2: BT-iCAL42 (peptide)
peptide: Biotin-W[dR]FKKANSRLPTSII
notes: also called biotinylated analog of iCAL42
Ki (CAL PDZ domain (CALP) [8]): 9.2 µM

B3: iCAL35 (peptide)
peptide: Ac-WQTSII
notes: the corresponding N-terminally acetylated peptides were bought; also called WQTSII; best known peptide hexamer
Ki (CAL PDZ domain (CALP) [11]): 14.8 µM
